Patent publication US20050112126A1 (Genentech, published 2005)
Values joined by “and” are separate entries in the source; they are usually repeats but may differ in a detail not shown here. Equal values may be shown once. Read-outs that look alike come from different tables or passages of the source.

Assays:
VEGF [1] = molecular target: T1, VEGF (human, UniProt P15692-4 27-191, limits assumed); test: competition ELISA (biotinylated VEGF to KDR-IgG)
T1 construct: Biotinylated in the KDR-IgG ELISA, amine-coupled to the chip in BIAcore; also called biotinylated VEGF; vascular endothelial growth factor

VEGF [2] = molecular target: T1, VEGF; test: competition ELISA (biotinylated VEGF to KDR-IgG); remark: listed apart in the source
Method: (§1) Standards (6.9-440 ng/ml chimeric F(ab)) and two-fold serial of samples were incubated with 2 nM biotinylated VEGF for 1 h in tubes. The solutions from the tubes were then transferred to the ELISA plates and incubated for 1 h. […] Titration curves were fit with a four-parameter nonlinear regression curve-fitting program (KaleidaGraph, Synergy Software, Reading Pa.). […] Assays for full-length IgG were the same as for the F(ab)s except that the assay buffer contained 10% human serum.

VEGF [3] = molecular target: T1, VEGF; test: competition ELISA (biotinylated VEGF to KDR-IgG), 10% human serum
Method: as §1

VEGF [4] = molecular target: T1, VEGF; test: BIAcore-2000 SPR, Fab over immobilized VEGF, 25 C
Method: (§2) BIAcore Analysis: The VEGF-binding affinities of Fab fragments were calculated from association and dissociation rate constants measured using a BIAcore-2000™ surface plasmon resonance system (BIAcore, Inc., Piscataway, N.J.). A biosensor chip was activated for covalent coupling of VEGF using N-ethyl-N′-(3-dimethylaminopropyl)-carbodiimide hydrochloride (EDC) and N-hydroxysuccinimide (NHS) according to the supplier's (BIAcore, Inc., Piscataway, N.J.) instructions. VEGF was buffered exchanged into 20 mM sodium acetate, pH 4.8 and diluted to approximately 50 μg/mL. An aliquot (35 μL) was injected at a flow rate of 2 μL/min to achieve approximately 700-1400 response units (RU) of coupled protein. Finally, 1 M ethanolamine was injected as a blocking agent.
(§3) For kinetics measurements, two-fold serial dilutions of Fab were injected in PBS/TWEEN™ buffer (0.05% TWEEN 20™ in phosphate buffered saline) at 25° C. at a flow rate of 10 μL/min. […] Equilibrium dissociation constants, Kd's from surface plasmon resonance (SPR) measurements were calculated as koff/kon.

VEGF [5] = molecular target: T1, VEGF; test: BIAcore-2000 SPR, relative to Y0192
Method: as §2, §3

VEGF [6] = molecular target: T1, VEGF; test: BIAcore-2000 SPR, Fab over immobilized VEGF, 25 C; off-rate near detection limit
Method: as §2, §3

rhVEGF165 [7] = molecular target: T2, rhVEGF165 (human, UniProt P15692 27-191); test: cell-based or functional assay
rhVEGF165 [8] = molecular target: T2, rhVEGF165; test: cell-based or functional assay; remark: listed apart in the source

| Binder | Kd (VEGF [4]) | koff (VEGF [4]) | kon (VEGF [4]) | Kd (wt)/Kd (mut) (VEGF [5]) | further results |
| --- | --- | --- | --- | --- | --- |
| F(ab)-1 (Fab, V domains shown) VH: EVQLVESGGGLVQPGGSLRLSCAASGYTFTNYGMNWVRQAPGKGLEWVGWINTYTGEPTYAADFKRRFTISRDNSKNTLYLQMNSLRAEDTAVYYCARYPHYYGSSHWYFDVWGQGTLVTVSS VL: DIQMTQSPSSLSASVGDRVTITCSASQDISNYLNWYQQKPGKAPKLLIYFTSSLHSGVPSRFSGSGSGTDFTLTISSLQPEDFATYYCQQYSTVPWTFGQGTKVEIK | – | – | – | – | EC50 F(ab)-X / EC50 chimeric F(ab) (VEGF [1]): > 1350; fold reduction of binding affinity from the chimeric F(ab) (VEGF [1]): > 1000 fold |
| F(ab)-8 (Fab, V domains shown, F(ab)-5 with IleH69Phe and LeuH78Ala; Kabat numbers; Fab with human CH1 and CL) VH: EVQLVESGGGLVQPGGSLRLSCAASGYTFTNYGMNWVRQAPGKGLEWVGWINTYTGEPTYAADFKRRFTFSLDTSKNTAYLQMNSLRAEDTAVYYCARYPHYYGSSHWYFDVWGQGTLVTVSS VL: DIQMTQSPSSLSASVGDRVTITCSASQDISNYLNWYQQKPGKAPKVLIYFTSSLHSGVPSRFSGSGSGTDFTLTISSLQPEDFATYYCQQYSTVPWTFGQGTKVEIK | – | – | – | – | EC50 F(ab)-X / EC50 chimeric F(ab) (VEGF [2]): 9.6 ratio; fold improvement in binding vs F(ab)-5 (VEGF [2]): 8 fold |
| F(ab)-9 (Fab, V domains shown, F(ab)-8 with GlyH49Ala; Kabat numbers; Fab with human CH1 and CL) VH: EVQLVESGGGLVQPGGSLRLSCAASGYTFTNYGMNWVRQAPGKGLEWVAWINTYTGEPTYAADFKRRFTFSLDTSKNTAYLQMNSLRAEDTAVYYCARYPHYYGSSHWYFDVWGQGTLVTVSS VL: DIQMTQSPSSLSASVGDRVTITCSASQDISNYLNWYQQKPGKAPKVLIYFTSSLHSGVPSRFSGSGSGTDFTLTISSLQPEDFATYYCQQYSTVPWTFGQGTKVEIK | – | – | – | – | EC50 F(ab)-X / EC50 chimeric F(ab) (VEGF [2]): > 150 ratio; fold reduction in binding vs F(ab)-8 (VEGF [2]): 15 fold |
| chIgG1 (antibody, V domains shown, Murine A4.6.1 VL and VH fused to human kappa CL and human IgG1 heavy chain constant domains; also called chimeric IgG1) VH: EIQLVQSGPELKQPGETVRISCKASGYTFTNYGMNWVKQAPGKGLKWMGWINTYTGEPTYAADFKRRFTFSLETSASTAYLQISNLKNDDTATYFCAKYPHYYGSSHWYFDVWGAGTTVTVSS VL: DIQMTQTTSSLSASLGDRVIISCSASQDISNYLNWYQQKPDGTVKVLIYFTSSLHSGVPSRFSGSGSGTDYSLTISNLEPEDIATYYCQQYSTVPWTFGGGTKLEIKR | – | – | – | – | EC50 (VEGF [3]): 0.113 µg/mL and 0.75 nM; IgG1/chIgG1 (EC50 ratio) (VEGF [3]): 1 ratio |
| muMAb VEGF A.4.6.1 (antibody, V domains shown, Original murine IgG1 antibody purified from ascites; also called murIgG1; murine mAb A4.6.1) VH: EIQLVQSGPELKQPGETVRISCKASGYTFTNYGMNWVKQAPGKGLKWMGWINTYTGEPTYAADFKRRFTFSLETSASTAYLQISNLKNDDTATYFCAKYPHYYGSSHWYFDVWGAGTTVTVSS VL: DIQMTQTTSSLSASLGDRVIISCSASQDISNYLNWYQQKPDGTVKVLIYFTSSLHSGVPSRFSGSGSGTDYSLTISNLEPEDIATYYCQQYSTVPWTFGGGTKLEIKR | – | – | – | – | IgG1/chIgG1 (EC50 ratio) (VEGF [3]): 0.759 ratio |
| Y0238-1 (Fab, V domains shown, From library YC-81 on the pY0192 template; Soluble Fab) VH: EVQLVESGGGLVQPGGSLRLSCAASGYTFTNYGINWVRQAPGKGLEWVGWINTYTGEPTYAADFKRRFTFSLDTSKSTAYLQMNSLRAEDTAVYYCAKYPYYRGTSHWYFDVWGQGTL VL: DIQLTQSPSSLSASVGDRVTITCRANEQLSNYLNWYQQKPGKAPKVLIYFTSSLHSGVPSRFSGSGSGTDFTLTISSLQPEDFATYYCQQYSTVPWTFGQGTKVEIKR | 0.4 nM | 9e-06 s⁻¹ | 26000 M⁻¹ s⁻¹ | 7.3 ratio | – |
| Y0244-1 (Fab, V domains shown, Soluble Fab) VH: EVQLVESGGGLVQPGGSLRLSCAASGYTFTNYGINWVRQAPGKGLEWVGWINTYTGEPTYAADFKRRFTFSVDVSKSTAYLQMNSLRAEDTAVYYCAKYPHYYGSSHWYFDVWGQGTL VL: DIQLTQSPSSLSASVGDRVTITCRANEQLSNYLNWYQQKPGKAPKVLIYFTSSLHSGVPSRFSGSGSGTDFTLTISSLQPEDFATYYCQQYSTVPWTFGQGTKVEIKR | 8 nM | 0.00027 s⁻¹ | 34000 M⁻¹ s⁻¹ | 3.6 ratio | – |
| Y0238-3 (Fab, V domains shown, Soluble Fab) VH: EVQLVESGGGLVQPGGSLRLSCAASGYTFTNYGINWVRQAPGKGLEWVGWINTYTGEPTYAADFKRRFTFSLDTSKSTAYLQMNSLRAEDTAVYYCAKYPYYYGTSHWYFDVWGQGTL VL: DIQLTQSPSSLSASVGDRVTITCRANEQLSNYLNWYQQKPGKAPKVLIYFTSSLHSGVPSRFSGSGSGTDFTLTISSLQPEDFATYYCQQYSTVPWTFGQGTKVEIKR | ≤ 0.2 nM | – | 17000 M⁻¹ s⁻¹ | ≥ 14 ratio | koff (VEGF [6]): ≤ 4e-06 s⁻¹ |
| Y0244-4 (Fab, V domains shown, Soluble Fab) VH: EVQLVESGGGLVQPGGSLRLSCAASGYTFTNYGINWVRQAPGKGLEWVGWINTYTGEPTYAADFKRRFTFSIDKSKSTAYLQMNSLRAEDTAVYYCAKYPHYYGSSHWYFDVWGQGTL VL: DIQLTQSPSSLSASVGDRVTITCRANEQLSNYLNWYQQKPGKAPKVLIYFTSSLHSGVPSRFSGSGSGTDFTLTISSLQPEDFATYYCQQYSTVPWTFGQGTKVEIKR | 3.3 nM | 0.00017 s⁻¹ | 52000 M⁻¹ s⁻¹ | 0.9 ratio | – |
| Y0238-7 (Fab, V domains shown, From library YC-81 on the pY0192 template; Soluble Fab) VH: EVQLVESGGGLVQPGGSLRLSCAASGYTFTNYGINWVRQAPGKGLEWVGWINTYTGEPTYAADFKRRFTFSLDTSKSTAYLQMNSLRAEDTAVYYCAKYPYYWGTSHWYFDVWGQGTL VL: DIQLTQSPSSLSASVGDRVTITCRANEQLSNYLNWYQQKPGKAPKVLIYFTSSLHSGVPSRFSGSGSGTDFTLTISSLQPEDFATYYCQQYSTVPWTFGQGTKVEIKR | ≤ 0.4 nM | – | 15000 M⁻¹ s⁻¹ | ≥ 7.3 ratio | koff (VEGF [6]): ≤ 6e-06 s⁻¹ |
| Y0243-1 (Fab, V domains shown, Soluble Fab) VH: EVQLVESGGGLVQPGGSLRLSCAASGYDFTHYGMNWVRQAPGKGLEWVGWINTYTGEPTYAADFKRRFTFSLDTSKSTAYLQMNSLRAEDTAVYYCAKYPHYYGSSHWYFDVWGQGTL VL: DIQLTQSPSSLSASVGDRVTITCRANEQLSNYLNWYQQKPGKAPKVLIYFTSSLHSGVPSRFSGSGSGTDFTLTISSLQPEDFATYYCQQYSTVPWTFGQGTKVEIKR | 0.7 nM | 4.5e-05 s⁻¹ | 67000 M⁻¹ s⁻¹ | 4.1 ratio | – |

Continued, in another order:

| Kd (VEGF [4]) | koff (VEGF [4]) | kon (VEGF [4]) | Kd (wt)/Kd (mut) (VEGF [5]) | Binder | further results |
| --- | --- | --- | --- | --- | --- |
| 0.9 nM | 8e-06 s⁻¹ | 8000 M⁻¹ s⁻¹ | 3.2 ratio | Y0238-5 (Fab, V domains shown, From library YC-81 on the pY0192 template; Soluble Fab) VH: EVQLVESGGGLVQPGGSLRLSCAASGYTFTNYGINWVRQAPGKGLEWVGWINTYTGEPTYAADFKRRFTFSLDTSKSTAYLQMNSLRAEDTAVYYCAKYPYYIAKSHWYFDVWGQGTL VL: DIQLTQSPSSLSASVGDRVTITCRANEQLSNYLNWYQQKPGKAPKVLIYFTSSLHSGVPSRFSGSGSGTDFTLTISSLQPEDFATYYCQQYSTVPWTFGQGTKVEIKR | – |
| ≤ 0.15 nM | – | 35000 M⁻¹ s⁻¹ | ≥ 20 ratio | Y0313-1 (Fab, V domains shown, Soluble Fab; Y0243-1 with VH3 H101Y and S105T) VH: EVQLVESGGGLVQPGGSLRLSCAASGYDFTHYGMNWVRQAPGKGLEWVGWINTYTGEPTYAADFKRRFTFSLDTSKSTAYLQMNSLRAEDTAVYYCAKYPYYYGTSHWYFDVWGQGTL VL: DIQLTQSPSSLSASVGDRVTITCRANEQLSNYLNWYQQKPGKAPKVLIYFTSSLHSGVPSRFSGSGSGTDFTLTISSLQPEDFATYYCQQYSTVPWTFGQGTKVEIKR | IC50 (read off the curve) (rhVEGF165 [7]): ~0.5 nM; koff (VEGF [6]): ≤ 5.4e-06 s⁻¹; fold potency over the wild-type Fab (Y0192), inhibition of VEGF-induced HuVEC growth (rhVEGF165 [8]): > 30 fold |
| 0.6 nM | 9e-06 s⁻¹ | 16000 M⁻¹ s⁻¹ | 4.8 ratio | Y0238-10 (Fab, V domains shown, From library YC-81 on the pY0192 template; Soluble Fab) VH: EVQLVESGGGLVQPGGSLRLSCAASGYTFTNYGINWVRQAPGKGLEWVGWINTYTGEPTYAADFKRRFTFSLDTSKSTAYLQMNSLRAEDTAVYYCAKYPYYRNTSHWYFDVWGQGTL VL: DIQLTQSPSSLSASVGDRVTITCRANEQLSNYLNWYQQKPGKAPKVLIYFTSSLHSGVPSRFSGSGSGTDFTLTISSLQPEDFATYYCQQYSTVPWTFGQGTKVEIKR | – |
| 0.65 nM | 8.1e-06 s⁻¹ | 12000 M⁻¹ s⁻¹ | 4.5 ratio | Y0313-3 (Fab, V domains shown, Soluble Fab) VH: EVQLVESGGGLVQPGGSLRLSCAASGYTFTNYGINWVRQAPGKGLEWVGWINTYTGEPTYAADFKRRFTFSLDTSKSTAYLQMNSLRAEDTAVYYCAKYPYYYGSSHWYFDVWGQGTL VL: DIQLTQSPSSLSASVGDRVTITCRANEQLSNYLNWYQQKPGKAPKVLIYFTSSLHSGVPSRFSGSGSGTDFTLTISSLQPEDFATYYCQQYSTVPWTFGQGTKVEIKR | – |
